Measurements published in patent US20220048954A1.
Several values for one entry are separate records, joined by “and”; a condition that tells them apart may be missing. Equal values may be shown once.

Biological target: mouse angiotensin converting enzyme 2 (ACE2) (mouse) (UniProt Q8R0I0)
Assay: cell-based or functional assay

Chain of UniProt Q8R0I0 (Q8R0I0 18-805): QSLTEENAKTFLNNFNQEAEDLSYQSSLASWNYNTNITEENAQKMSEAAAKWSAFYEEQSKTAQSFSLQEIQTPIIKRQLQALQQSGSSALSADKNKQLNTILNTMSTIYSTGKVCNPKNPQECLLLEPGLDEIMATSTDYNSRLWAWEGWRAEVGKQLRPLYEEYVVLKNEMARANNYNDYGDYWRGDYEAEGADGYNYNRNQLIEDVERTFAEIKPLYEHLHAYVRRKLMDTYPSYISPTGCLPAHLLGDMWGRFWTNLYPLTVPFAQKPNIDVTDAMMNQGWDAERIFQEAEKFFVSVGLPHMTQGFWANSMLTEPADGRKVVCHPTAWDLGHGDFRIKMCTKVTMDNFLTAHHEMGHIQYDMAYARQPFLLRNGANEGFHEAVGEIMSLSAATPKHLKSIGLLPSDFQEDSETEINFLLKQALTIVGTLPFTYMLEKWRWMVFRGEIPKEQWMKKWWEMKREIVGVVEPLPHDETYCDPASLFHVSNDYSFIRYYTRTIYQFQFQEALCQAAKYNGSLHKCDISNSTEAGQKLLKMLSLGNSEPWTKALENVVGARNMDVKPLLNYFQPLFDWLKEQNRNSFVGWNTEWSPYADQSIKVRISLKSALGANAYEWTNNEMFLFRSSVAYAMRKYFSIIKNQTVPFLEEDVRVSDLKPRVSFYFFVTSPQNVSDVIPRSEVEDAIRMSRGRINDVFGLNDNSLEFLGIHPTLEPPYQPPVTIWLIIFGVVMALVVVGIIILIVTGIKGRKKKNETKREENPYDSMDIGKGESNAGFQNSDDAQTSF

With “SARS-CoV2 Spike protein, WT (614D), with C-terminal HA tag (from UniProt P0DTC2 14-1273)” the cell fusion assay, FACS red/green double positive events (x over the baseline without Spike) was 17 and 18.
